Source: patent US20120316071A1
Each block holds one substance with its values, some of them ahead of it.

Legend:
[1] = target: rHuman CD44/Fc Chimera (human) (UniProt P16070); test: ECL (MSD) multispot assay, antigen spotted; blank spot of this row 223
[2] = target: rHuman IGF-1 sR (insulin-like growth factor-1 soluble receptor) (human) (UniProt P08069); test: as above
[3] = target: rHuman Erythropoietin R/Fc Chimera (human) (UniProt P19235); test: as above
[4] = target: rHuman HGF R/c-MET/Fc Chimera (human) (UniProt P08581); test: as above
[5] = target: rHuman CD44/Fc Chimera (human) (UniProt P16070); test: ECL (MSD) multispot assay, antigen spotted; blank spot of this row 236
[6] = target: rHuman Notch-1/Fc Chimera (human) (UniProt P46531); test: as above
[7] = target: rHuman IGF-1 sR (insulin-like growth factor-1 soluble receptor) (human) (UniProt P08069); test: as above
[8] = target: rHuman Erythropoietin R/Fc Chimera (human) (UniProt P19235); test: as above
[9] = target: rHuman HGF R/c-MET/Fc Chimera (human) (UniProt P08581); test: as above
[10] = target: rHuman EGF R/Fc Chimera, CF (R&D Systems Cat#344-ER) (human) (UniProt P00533); test: ECL multispot (MSD), 20 nM Fab
[11] = target: rHuman ErbB2/Fc Chimera, CF (R&D Systems Cat#1129-ER) (human) (UniProt P04626); test: ECL multispot (MSD), 20 nM Fab
[12] = target: rHuman IGF-1 sR (insulin-like growth factor-1 soluble receptor) (human) (UniProt P08069); test: ECL (MSD) multispot assay, antigen spotted; blank spot of this row 424
[13] = target: rHuman HGF R/c-MET/Fc Chimera (human) (UniProt P08581); test: as above
[14] = target: rHuman P-Cadherin/Fc Chimera, CF (R&D Systems Cat#861-PC) (human) (UniProt P22223); test: ECL multispot (MSD) binding assay, antigen spotted on plate, Fab in solution; blank spot 240
[15] = target: rHuman IGF-1 sR, CF (R&D Systems Cat#391-GR) (human) (UniProt P08069); test: as above
[16] = target: rHuman Notch-1/Fc Chimera, CF (R&D Systems Cat#3647-TK) (human) (UniProt P46531); test: as above
[17] = target: rHuman EGF R/Fc Chimera, CF (R&D Systems Cat#344-ER) (human) (UniProt P00533); test: as above
[18] = target: rHuman HGF R/c-MET/Fc Chimera, CF (R&D Systems Cat#358-MT/CF) (human) (UniProt P08581); test: as above
[19] = target: rHuman ErbB2/Fc Chimera, CF (R&D Systems Cat#1129-ER) (human) (UniProt P04626); test: as above
[20] = target: rHuman CD44/Fc Chimera, CF (R&D Systems Cat#3660-CD) (human) (UniProt P16070); test: as above
[21] = target: rHuman P-Cadherin/Fc Chimera, CF (R&D Systems Cat#861-PC) (human) (UniProt P22223); test: ECL multispot (MSD) binding assay, antigen spotted on plate, Fab in solution; blank spot 424
[22] = target: rHuman IGF-1 sR, CF (R&D Systems Cat#391-GR) (human) (UniProt P08069); test: as above
[23] = target: rHuman Notch-1/Fc Chimera, CF (R&D Systems Cat#3647-TK) (human) (UniProt P46531); test: as above
[24] = target: rHuman EGF R/Fc Chimera, CF (R&D Systems Cat#344-ER) (human) (UniProt P00533); test: as above
[25] = target: rHuman HGF R/c-MET/Fc Chimera, CF (R&D Systems Cat#358-MT/CF) (human) (UniProt P08581); test: as above
[26] = target: rHuman ErbB2/Fc Chimera, CF (R&D Systems Cat#1129-ER) (human) (UniProt P04626); test: as above
[27] = target: rHuman CD44/Fc Chimera, CF (R&D Systems Cat#3660-CD) (human) (UniProt P16070); test: as above
[28] = target: rHuman P-Cadherin/Fc Chimera, CF (R&D Systems Cat#861-PC) (human) (UniProt P22223); test: ECL multispot (MSD) binding assay, antigen spotted on plate, Fab in solution; blank spot 213
[29] = target: rHuman IGF-1 sR, CF (R&D Systems Cat#391-GR) (human) (UniProt P08069); test: as above
[30] = target: rHuman Notch-1/Fc Chimera, CF (R&D Systems Cat#3647-TK) (human) (UniProt P46531); test: as above
[31] = target: rHuman EGF R/Fc Chimera, CF (R&D Systems Cat#344-ER) (human) (UniProt P00533); test: as above
[32] = target: rHuman HGF R/c-MET/Fc Chimera, CF (R&D Systems Cat#358-MT/CF) (human) (UniProt P08581); test: as above
[33] = target: rHuman ErbB2/Fc Chimera, CF (R&D Systems Cat#1129-ER) (human) (UniProt P04626); test: as above
[34] = target: rHuman CD44/Fc Chimera, CF (R&D Systems Cat#3660-CD) (human) (UniProt P16070); test: as above
[35] = target: rHuman P-Cadherin/Fc Chimera, CF (R&D Systems Cat#861-PC) (human) (UniProt P22223); test: ECL multispot (MSD) binding assay, antigen spotted on plate, Fab in solution; blank spot 306
[36] = target: rHuman IGF-1 sR, CF (R&D Systems Cat#391-GR) (human) (UniProt P08069); test: as above
[37] = target: rHuman Notch-1/Fc Chimera, CF (R&D Systems Cat#3647-TK) (human) (UniProt P46531); test: as above
[38] = target: rHuman EGF R/Fc Chimera, CF (R&D Systems Cat#344-ER) (human) (UniProt P00533); test: as above
[39] = target: rHuman HGF R/c-MET/Fc Chimera, CF (R&D Systems Cat#358-MT/CF) (human) (UniProt P08581); test: as above
[40] = target: rHuman ErbB2/Fc Chimera, CF (R&D Systems Cat#1129-ER) (human) (UniProt P04626); test: as above
[41] = target: rHuman CD44/Fc Chimera, CF (R&D Systems Cat#3660-CD) (human) (UniProt P16070); test: as above
[42] = target: rHuman HGF R/c-MET/Fc Chimera, CF (R&D Systems Cat#358-MT/CF) (human) (UniProt P08581); test: ECL multispot (MSD) binding assay, antigens spotted on plate, 20 nM Fab
[43] = target: Recombinant Human DLL4 (delta-like protein 4) (human) (UniProt Q9NR61); test: ELISA, Fab on coated recombinant human DLL4, signal minus noise
[44] = target: Recombinant Human DLL4 (delta-like protein 4) (human) (UniProt Q9NR61); test: ECL (MSD electrochemiluminescence) binding assay, Fab on immobilised recombinant human DLL4
[45] = target: rHuman IGF-1 sR (insulin-like growth factor-1 soluble receptor) (human) (UniProt P08069); test: ECL (MSD) multispot assay, antigen spotted; blank spot of this row 284
[46] = target: rHuman Erythropoietin R/Fc Chimera (human) (UniProt P19235); test: as above
[47] = target: rHuman HGF R/c-MET/Fc Chimera (human) (UniProt P08581); test: as above
[48] = target: Recombinant Human DLL4 (R&D Systems Cat#1506-D4/CF) (human) (UniProt Q9NR61); test: ECL multispot (MSD), 20 nM Fab
[49] = target: rHuman CD44/Fc Chimera, CF (R&D Systems Cat#3660-CD) (human) (UniProt P16070); test: ECL multispot (MSD), 20 nM Fab
[50] = target: rHuman Notch-1/Fc Chimera, CF (R&D Systems Cat#3647-TK) (human) (UniProt P46531); test: ECL multispot (MSD), 20 nM Fab

Substance: Fab VH5-51_IGHD5-18*01>3_IGHJ4*01 G100K/G104T S84L & V3-4_IGLJ1*01
ECL signal [1]: 545
ECL signal [2]: 908
ECL signal [3]: 458
ECL signal [4]: 933

Substance: Fab VH5-51_IGHD5-18*01>3_IGHJ4*01 G100K/G104T & V3-4_IGLJ1*01
ECL signal [12]: 877
ECL signal [13]: 838
ECL signal [14]: 346
ECL signal [15]: 964
ECL signal [16]: 507
ECL signal [17]: 915
ECL signal [18]: 936
ECL signal [19]: 1070
ECL signal [20]: 633
ECL signal [21]: 319
ECL signal [22]: 877
ECL signal [23]: 543
ECL signal [24]: 852
ECL signal [25]: 838
ECL signal [26]: 1100
ECL signal [27]: 579
ECL signal [28]: 226
ECL signal [29]: 781
ECL signal [30]: 437
ECL signal [31]: 768
ECL signal [32]: 867
ECL signal [33]: 1100
ECL signal [34]: 540

Substance: Fab VH3-23_IGHD2-21*01>3_IGHJ6*01 H100E/S108P/Y113G Y110N & V2-13_IGLJ2*01
ECL multispot signal (ratio to blank; column not labelled) [42]: 2.3

Substance: Fab VH5-51_IGHD5-18*01>3_IGHJ4*01 G100K/G104T D109A & V3-4_IGLJ1*01
ECL signal [45]: 967
ECL signal [46]: 612
ECL signal [47]: 846

Substance: Fab VH3-23_IGHD2-21*01>3_IGHJ6*01 H100E/S108P/Y113G (EPG) Y109W & V2-13_IGLJ2*01
ECL signal ratio (column head gives no unit) [48]: 4.3
ECL signal ratio (column head gives no unit) [49]: 2.4

More lines, now with the values ahead:

ECL signal [5]: 577
ECL signal [6]: 505
ECL signal [7]: 914
ECL signal [8]: 484
ECL signal [9]: 811
Substance: Fab VH5-51_IGHD5-18*01>3_IGHJ4*01 G100K/G104T S84V & V3-4_IGLJ1*01

ECL signal ratio (column head gives no unit) [10]: 2.2
ECL signal ratio (column head gives no unit) [11]: 2.1
Substance: Fab VH3-23_IGHD2-21*01>3_IGHJ6*01 H100E/S108P/Y113G (EPG) Y109L & V2-13_IGLJ2*01

ECL signal [35]: 310
ECL signal [36]: 898
ECL signal [37]: 683
ECL signal [38]: 729
ECL signal [39]: 856
ECL signal [40]: 1030
ECL signal [41]: 606
Substance: Fab VH5-51_IGHD5-18*01>3_IGHJ4*01 G100K/G104T D55A & V3-4_IGLJ1*01

ELISA (Signal-Noise) [43]: 0.03
ECL signal [44]: 823
Substance: Fab VH5-51_IGHD5-18*01>3_IGHJ4*01 G100K/G104T T58D/K & V3-4_IGLJ1*01

ECL signal ratio (column head gives no unit) [50]: 2.3
ECL signal ratio (column head gives no unit) [48]: 2.3
Substance: Fab VH3-23_IGHD2-21*01>3_IGHJ6*01 H100E/S108P/Y113G (EPG) & V2-13_IGLJ2*01
